Laboratory results: EP2954933A1 (3B Pharmaceuticals GmbH, dated 2015)
*1 amine or outer side, *2 acyl side, *3 side chain or, on linkers, in order; H or OH if unused. [ ]: non-standard residue; d: D form. Lys(DOTA) = Lys with DOTA chelator on the side chain; Oic = O=C(O)[C@@H]1C[C@@H]2CCCC[C@@H]2N1; d2Nal = N[C@H](Cc1ccc2ccccc2c1)C(=O)O; Glutaryl = O=C(CCCC(=O)[*:2])[*:1]; αMeF = C[C@](N)(Cc1ccccc1)C(=O)O; Ttds = non-natural spacer; Orn = NCCC[C@H](N)C(=O)O; 1206 = not defined here; GABA = NCCCC(=O)O

T1: bradykinin B1 receptor (human) (UniProt P46663)
T1 sequence (looked up): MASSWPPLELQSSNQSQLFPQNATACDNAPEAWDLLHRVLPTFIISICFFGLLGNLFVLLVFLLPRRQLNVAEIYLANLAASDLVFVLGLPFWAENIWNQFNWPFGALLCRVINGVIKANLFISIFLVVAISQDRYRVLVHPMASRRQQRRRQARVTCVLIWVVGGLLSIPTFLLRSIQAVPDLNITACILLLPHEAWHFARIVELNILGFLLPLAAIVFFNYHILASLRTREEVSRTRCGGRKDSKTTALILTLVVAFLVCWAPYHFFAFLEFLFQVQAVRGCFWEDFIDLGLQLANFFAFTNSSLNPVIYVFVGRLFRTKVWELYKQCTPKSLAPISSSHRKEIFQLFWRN

B1: 1206-Glutar-Ttds-Lys(DOTA)-Ttds-GABA-Lys-Arg-Pro-Hyp-Gly-Cha-Ser-Pro-Leu-OH (peptide)
peptide: KRPXGXSPL
modifications: position 4 = Hyp (hydroxyproline); position 6 = Cha (cyclohexylalanine); N-terminus of Lys1 acylated with 1206-Glutar-Ttds-Lys(DOTA)-Ttds-GABA- (1206 = non-peptide NTR1 antagonist moiety; DOTA on the Lys side chain); free C-terminal …
B2: 1206-Glutar-Ttds-Lys(DOTA)-Ttds-GABA-Orn-Arg-Oic-Pro-Gly-Amf-Ser-nal-Ile-OH (peptide)
peptide: {1206-Glutaryl-Ttds-Lys(DOTA)-Ttds-GABA}-[Orn]R[Oic]PG[αMeF]S[d2Nal]I-OH
modifications: reading uncertain; also: printed as 1206-Glutar-Ttds-Lys(DOTA)-Ttds-GABA-Orn-Arg-Oic-Pro-Gly-Amf-Ser-nal-Ile-OH

Target: T1, bradykinin B1 receptor (human)
Test: radioligand displacement: 0.35 nM [3H]desArg10-KD on human B1R from CHO cells, compound at 100 nM

Inhibition [at 100 nM, %] [%]	Binder
20	B1
17	B2
